Assay results from patent publication US20240301052A1 (LANOVA MEDICINES DEVELOPMENT, published 2024).
Where a chain is given by its changes, count along the chain named.

T1: human SLC34A2 (human, UniProt O95436 1-690)
T1 construct: whole, on cells; also called human solute carrier 34 A2; NaPi2b
T1 sequence (looked up): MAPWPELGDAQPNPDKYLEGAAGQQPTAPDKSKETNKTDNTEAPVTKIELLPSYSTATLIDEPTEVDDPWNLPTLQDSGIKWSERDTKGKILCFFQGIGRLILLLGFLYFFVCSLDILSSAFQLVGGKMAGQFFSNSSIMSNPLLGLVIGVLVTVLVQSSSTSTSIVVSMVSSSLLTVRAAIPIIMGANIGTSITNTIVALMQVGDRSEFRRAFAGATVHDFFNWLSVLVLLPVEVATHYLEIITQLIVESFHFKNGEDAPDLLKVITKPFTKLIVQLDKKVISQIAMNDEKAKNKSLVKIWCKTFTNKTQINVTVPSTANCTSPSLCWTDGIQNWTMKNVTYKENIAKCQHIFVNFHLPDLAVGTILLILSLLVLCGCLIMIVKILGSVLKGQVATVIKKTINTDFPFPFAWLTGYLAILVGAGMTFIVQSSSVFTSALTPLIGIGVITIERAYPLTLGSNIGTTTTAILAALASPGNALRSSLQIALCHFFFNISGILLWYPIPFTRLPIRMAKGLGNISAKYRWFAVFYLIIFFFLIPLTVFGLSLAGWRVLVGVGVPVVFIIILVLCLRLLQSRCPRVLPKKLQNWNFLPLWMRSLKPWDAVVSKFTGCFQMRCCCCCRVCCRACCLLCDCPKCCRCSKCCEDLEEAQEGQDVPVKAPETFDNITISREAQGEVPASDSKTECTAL

B1: xi95H11A1D8VH-1 hIgG1 (antibody, V domains shown)
VH: QVQLQQPGAELVKPGASVKMSCKTSGYTFTTNNMHWVKQTPGQGLEWIGAIYPGNGATAYNQKFKGKATLTADKSSSTAYMQLSSLTSEASAVYYCARGMYGHGAMDYWGQGTSVIVSS
VL: DIVLTQSPATLSVTPGDSVSLSCRARQNIGNNLYWYQQKSNESPRLLIKYASQSISGIPSRFSGSGSGTDFTLTINSVETEDFGVYFCQQSFSWPLTFGAGTKLELK
notes: chimeric, hIgG1; the suffix VH-1 is not explained
B2: 30H9B8F9.p1.z1 hIgG1 (antibody, V domains shown)
VH: QVQLVQSGAEVKKPGASVKVSCKASGYTFTTNNMHWVRQAPGQGLEWMGAIYPGSGATAYNQKFKGRVTMTRDTSTSTVYMELSSLRSEDTAVYYCASGMYGHGAMDYWGQGTLVTVSS
VL: DIQLTQSPSFLSASVGDRVTITCKASQDVGTAVAWYQQKPGKAPKLLIYWATTRHSGVPSRFSGSGSGTEFTLTISSLQPEDFATYYCQQYSSNPLTFGQGTKLEIK
notes: humanized hIgG1
B3: 30H9B8F9.p1.z15 hIgG1 (antibody, V domains shown)
VH: QVQLVQSGAEVVKPGASVKMSCKTSGYTFTTNNMHWVKQAPGQGLEWIGAIYPGSGATAYNQKFKGRATLTADKSTSTAYMELSSLRSEATAVYYCARGMYGHGAMDYWGQGTSVTVSS
VL: B2 VL with L4M, A43S, S60D, T72I, L73F, L78V, Y87F, Q100A
notes: humanized hIgG1
B4: 30H9B8F9.p1.z3 hIgG1 (antibody, V domains shown)
VH: B2 VH
VL: B2 VL with L4M, A43S, S60D, T72I, L73F, L78V, Y87F, Q100A
notes: humanized hIgG1
B5: 30H9B8F9.p1.z4 hIgG1 (antibody, V domains shown)
VH: B2 VH
VL: DIVMTQSPSFLSASVGDRVTITCKASQDVGTAVAWYQQKPGKSPKLLIYWATTRHSGVPDRFTGSGSGTDFIFTISSVQPEDFATYFCQQYSSNPLTFGAGTKLEIK
notes: humanized hIgG1
B6: 30H9B8F9.p1.z8 hIgG1 (antibody, V domains shown)
VH: B2 VH with A24T, M48I, R72A, S98R
VL: B5 VL
notes: humanized hIgG1
B7: 30H9B8F9.p1.z14 hIgG1 (antibody, V domains shown)
VH: B3 VH
VL: B2 VL with A43S, S60D, L73F, Y87F
notes: humanized hIgG1
B8: 30H9B8F9.p1.z2 hIgG1 (antibody, V domains shown)
VH: B2 VH
VL: B2 VL with A43S, S60D, L73F, Y87F
notes: humanized hIgG1
B9: 30H9B8F9.p1.z10 hIgG1 (antibody, V domains shown)
VH: B3 VH with M20V, K38R, A68V, S114L
VL: B2 VL with A43S, S60D, L73F, Y87F
notes: humanized hIgG1
B10: 30H9B8F9.p1.z12 hIgG1 (antibody, V domains shown)
VH: B3 VH with M20V, K38R, A68V, S114L
VL: B5 VL
notes: humanized hIgG1
B11: 30H9B8F9.p1.z11 hIgG1 (antibody, V domains shown)
VH: B3 VH with M20V, K38R, A68V, S114L
VL: B5 VL with V3Q, T63S, D70E
notes: humanized hIgG1
B12: 30H9B8F9.p1.z7 hIgG1 (antibody, V domains shown)
VH: B2 VH with A24T, M48I, R72A, S98R
VL: B5 VL with V3Q, T63S, D70E
notes: humanized hIgG1
B13: 62G10E4G8.p3.z7 hIgG1 (antibody, V domains shown)
VH: QVQLVQSGAEVKKPGASVKVSCKASGYTFPSYITHWVRQAPGQGLEWIGAIYPGNADTSYIQKFKGRVTMTADKSTSTVYMELSSLRSEDTAVYYCARGTYGTSAWFTYWGQGTLVTVSS
VL: EIVLTQSPATLSVSPGERATLSCRARQNIGNNLYWYQQKPGQSPRLLIKYASQSISGIPSRFSGSGSGTDFTLTISSLQSEDFAVYFCQQSFSWPLTFGQGTKLEIK
notes: humanized hIgG1
B14: 62G10E4G8.p3.z16 hIgG1 (antibody, V domains shown)
VH: B13 VH with K12V, V20M, R38K, V68A, M70L, V79A
VL: B13 VL with V13A, L78V, Q100A
notes: humanized hIgG1
B15: 62G10E4G8.p3.z14 hIgG1 (antibody, V domains shown)
VH: B13 VH with K12V, V20M, R38K, V68A, M70L, V79A
VL: B13 VL with L4M, S60A, D70E
notes: humanized hIgG1
B16: 62G10E4G8.p3.z3 hIgG1 (antibody, V domains shown)
VH: B13 VH with I48M, A72R, K74T
VL: B13 VL
notes: humanized hIgG1
B17: 62G10E4G8.p3.z1 hIgG1 (antibody, V domains shown)
VH: B13 VH with I48M, A72R, K74T
VL: B13 VL with L4M, S43A, K49Y, S60A, D70E, F87Y
notes: humanized hIgG1
B18: 62G10E4G8.p3.z6 hIgG1 (antibody, V domains shown)
VH: B13 VH
VL: B13 VL with L4M, S60A, D70E
notes: humanized hIgG1
B19: 62G10E4G8.p3.z5 hIgG1 (antibody, V domains shown)
VH: B13 VH
VL: B13 VL with L4M, S43A, K49Y, S60A, D70E, F87Y
notes: humanized hIgG1
B20: 62G10E4G8.p3.z10 hIgG1 (antibody, V domains shown)
VH: B13 VH with R38K, M70L, V79A
VL: B13 VL with L4M, S60A, D70E
notes: humanized hIgG1
B21: 62G10E4G8.p3.z4 hIgG1 (antibody, V domains shown)
VH: B13 VH with I48M, A72R, K74T
VL: B13 VL with V13A, L78V, Q100A
notes: humanized hIgG1
B22: 62G10E4G8.p3.z2 hIgG1 (antibody, V domains shown)
VH: B13 VH with I48M, A72R, K74T
VL: B13 VL with L4M, S60A, D70E
notes: humanized hIgG1
B23: 62G10E4G8.p3.z12 hIgG1 (antibody, V domains shown)
VH: B13 VH with R38K, M70L, V79A
VL: B13 VL with V13A, L78V, Q100A
notes: humanized hIgG1
B24: 62G10E4G8.p3.z9 hIgG1 (antibody, V domains shown)
VH: B13 VH with R38K, M70L, V79A
VL: B13 VL with L4M, S43A, K49Y, S60A, D70E, F87Y
notes: humanized hIgG1
B25: 30H9B8F9.p1.z16 hIgG1 (antibody, V domains shown)
VH: B3 VH
VL: B5 VL
notes: humanized hIgG1
B26: xi11F6H8 hIgG1 (antibody, V domains shown)
VH: EVQLQQSGPELVKPGASVKISCKTSGFTFTEYTMHWVKQSHGKSLEWIGGINPNNGISSYNQNFKGKATLTVDKSSSTAYMELRSLTSEDSTVYYCARCRYYDTSYYDMDYWGQGTSVTVSS
VL: DIQMTQTTSSLSASLGDRVTISCRASQDIRNFLNWYQQKPDGTVKLLIYYTSRLHSGVPSRFSGSGSGTDYSLTISNLEEEDIATYFCQQSNTLPWTFGGGTKLEIK
notes: chimeric, hIgG1
B27: xi20H2F1 hIgG1 (antibody, V domains shown)
VH: EVKLVESGGNLVKPGGSLKLSCAASGFTFSSYAMSWVRQTPEKRLEWVASISNGGTTYYPDSVKGRFTISRDVARNILYLQMTSLRSEDTAMYYCARTHYRDFVYWGQGTLVTVSA
VL: EIVLTQAAFSNPVTLGTSASISCRSSKSLLHSNGITYLYWYLQKPGQSPQLLIYQMSNLASGVPDRFSCSGSGTDFTLRISRVEAEDVGVYYCAQNLEFPWTFGGGTKLEIK
notes: chimeric, hIgG1

Assays:
human SLC34A2 [1] = molecular target: T1, human SLC34A2; test: FACS, HEK293/human SLC34A2 cells
Experimental: (§1) Briefly, OVCAR3 cells or HEK293 cells expressing human SLC34A2 were incubated with chimeric antibodies (from 200 nM, 4 folds dilution, 8 points). After incubation at 4° C. for 60 minutes, the cells were washed with FACS buffer twice, then stained with fluorescent conjugated secondary antibody at 4° C. for 30 minutes. After that the cells were washed twice and analyzed by flow cytometry.

human SLC34A2 [2] = molecular target: T1, human SLC34A2; test: FACS, OVCAR3 cells
Experimental: The binding of these humanized antibodies to OVCAR3 cells was evaluated as described above, and the results are shown in FIG. 12A-D and Tables 16A-D.

human SLC34A2 [3] = molecular target: T1, human SLC34A2; test: FACS, OVCAR3 cells; remark: listed apart in the source
Experimental: In this example, cell based binding of chimeric antibodies (hIgG1) prepared from the murine antibodies on human SLC34A2 expressing cells were assessed using flow cytometry.
as §1

Binder	EC50 (human SLC34A2 [1]) [nM]	Top (MFI) (human SLC34A2 [1])	EC50 (human SLC34A2 [2]) [nM]	Top (MFI) (human SLC34A2 [2])	EC50 (human SLC34A2 [3]) [nM]	Top (MFI) (human SLC34A2 [3])
B1	63.4	12700				
B2			2.75	27100		
B3			1.05	26500		
B4			2.38	19600		
B5			2.76	20400		
B6			1.9	26200		
B7			1.31	27300		
B8			3.09	25200		
B9			1.93	30700		
B10			1.4	27600		
B11			1.43	27000		
B12			1.69	26700		
B13			6.08	26800		
B14			10.9	31900		
B15			4.58	27900		
B16			17.3	31300		
B17			944	87700		
B18			8.06	28200		
B19			~1360	~230000		
B20			4.87	27400		
B21			16.3	29900		
B22			32.9	29700		
B23			2.96	25400		
B24			24.1	31300		
B25			1.41	26500		
B26	1.92	111000			4.9	41300
B27	1.31	42000			2.73	26500
